Measurements: paper PMC8184944, “Crystal structures of aconitase X enzymes from bacteria and archaea provide insights into the molecular evolution of the aconitase superfamily” (Communications Biology, 2021)

B1: AtAcnX (Agrobacterium fabrum str. C58) (protein)
chain: MSSAVSTTAAPEARSILAGAAEGKVIATTEALSFWGGVDPATGKVIDVHHPLHGICLTGGVLFMPTSRGSCTGSGVLLDLILTGRAPSALVFCEAEDVLTLGALVAAEMFDKALPVIRLDAETFSRFSRAAHVSIDQNTIKADGVSLAIAPPATAHLDLNDDDRAMLVGRDGIAVRQAMRIIVAMAAQQGASALVDVTQGHIDGCIYASPANLTFAEKMADMGGKVRAPSTMNAISVDKANWRAQGVPEDFGDPAARLADAYVRMGCKPTFTCSPYLLDSAPSAGESIAWAESNAVIFANTVLGARTAKHPDFLDLCIAMTGRAPLSGVYIEENRRPQRIVDVALPAGIDDAFWPLVGYLAGKAAPDCIPLLRGLGAAKPSRDDLKALCAAFGTTSASPMLHIEGATPEAGLAPLETAETVTISLQDMAAAWSLLNDGPEEVQLVAIGSPHASLEECRALAAVFAGRKRRADVAVIVTAGQQVIDAAGKDGTLQSLKDSGVQVLPDLCWCSISEPVFPTKTRALMTNSGKYAHYGPGLSGRAVRFGSLADCVESALTGRAVSRLPVWLS
notes: E. coli BL21(DE3); monomer, ~59 kDa; [2Fe-2S] cluster

Assays:
TkAcnX = molecular target: T1, TkAcnX (Thermococcus kodakarensis, UniProt Q5JGJ6+Q5JGJ7); test: X-ray co-crystal structure, […] Å; format: binding; conditions: 40 mM MVA5P in co-crystallization; inactive form with [3Fe-4S] cluster; active site between subunits
T1 construct: gene TK1249; both subunits co-expressed in E. coli (pETDuet-1); His6 tag on small subunit cut off with 3C protease; heterodimer ~24 + ~42 kDa
T1 sequence (Q5JGJ7 whole entry): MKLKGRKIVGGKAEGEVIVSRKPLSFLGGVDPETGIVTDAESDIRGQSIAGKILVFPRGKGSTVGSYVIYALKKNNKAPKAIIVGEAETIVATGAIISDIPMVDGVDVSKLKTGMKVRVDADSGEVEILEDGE
T1 sequence (Q5JGJ6 whole entry): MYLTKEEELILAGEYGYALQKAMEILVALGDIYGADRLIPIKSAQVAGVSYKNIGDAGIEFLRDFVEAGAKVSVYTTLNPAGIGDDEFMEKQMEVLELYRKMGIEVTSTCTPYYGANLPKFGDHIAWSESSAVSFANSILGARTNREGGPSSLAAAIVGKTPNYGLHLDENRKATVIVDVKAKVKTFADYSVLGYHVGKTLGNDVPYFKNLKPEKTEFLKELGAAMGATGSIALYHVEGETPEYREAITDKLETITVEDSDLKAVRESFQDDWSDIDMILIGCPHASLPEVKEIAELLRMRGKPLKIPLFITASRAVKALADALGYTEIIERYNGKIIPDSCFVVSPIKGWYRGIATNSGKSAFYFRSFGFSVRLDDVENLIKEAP

[1] = substrate: O=C(O)[C@H]1NCC[C@H]1O; test: coupled spectrophotometric assay with NADH-dependent Pyr2C reductase; format: biochemical, Agrobacterium fabrum; conditions: free enzyme; coupling with NADH

Row | Molecule | X-ray co-crystal structure, 1.9 Å (TkAcnX) | Km [1] [µM] | kcat [1] [s⁻¹]
1 | C[C@@](O)(CCOP(=O)(O)O)CC(=O)O [MVA5P] | co-crystallized the wild-type enzyme of TkAcnX (inactive form) with MVA5P |  | 
2 | B1 |  | 1160 ± 110 | 33.33 ± 2.77
